According to patent US20100029554A1, “Composition and Methods for Treatment of Congestive Heart Failure” (Amylin Pharmaceuticals, Inc., priority 2006, published 2010):
Where a SMILES comes first, the peptide text is derived from it. Where no end group is shown, it is not given here. [ ]: non-standard residue; d: D form. Gly(octyl) = CCCCCCCC[C@H](N)C(=O)O

T1: GLP-1 receptor, endogenous in RINm5f cells (rat (RIN-m5F are called rat pancreas …, UniProt P32301 22-463))
T1 sequence (looked up): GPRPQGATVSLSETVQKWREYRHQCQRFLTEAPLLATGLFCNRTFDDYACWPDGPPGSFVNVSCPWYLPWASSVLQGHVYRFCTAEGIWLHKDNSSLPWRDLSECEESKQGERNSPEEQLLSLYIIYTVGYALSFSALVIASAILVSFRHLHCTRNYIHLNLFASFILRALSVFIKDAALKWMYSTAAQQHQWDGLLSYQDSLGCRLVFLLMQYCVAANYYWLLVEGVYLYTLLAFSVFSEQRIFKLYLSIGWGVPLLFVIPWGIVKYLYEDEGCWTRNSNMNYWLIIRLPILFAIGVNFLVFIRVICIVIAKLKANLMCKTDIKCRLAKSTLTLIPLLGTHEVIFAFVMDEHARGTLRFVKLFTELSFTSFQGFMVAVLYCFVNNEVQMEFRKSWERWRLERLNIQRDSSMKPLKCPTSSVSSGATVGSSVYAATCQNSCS

T2: GLP-1 receptor, endogenous in RINm5f cells (rat (RIN-m5F are called rat pancreas insulinoma cells)), P32301
T2 chain: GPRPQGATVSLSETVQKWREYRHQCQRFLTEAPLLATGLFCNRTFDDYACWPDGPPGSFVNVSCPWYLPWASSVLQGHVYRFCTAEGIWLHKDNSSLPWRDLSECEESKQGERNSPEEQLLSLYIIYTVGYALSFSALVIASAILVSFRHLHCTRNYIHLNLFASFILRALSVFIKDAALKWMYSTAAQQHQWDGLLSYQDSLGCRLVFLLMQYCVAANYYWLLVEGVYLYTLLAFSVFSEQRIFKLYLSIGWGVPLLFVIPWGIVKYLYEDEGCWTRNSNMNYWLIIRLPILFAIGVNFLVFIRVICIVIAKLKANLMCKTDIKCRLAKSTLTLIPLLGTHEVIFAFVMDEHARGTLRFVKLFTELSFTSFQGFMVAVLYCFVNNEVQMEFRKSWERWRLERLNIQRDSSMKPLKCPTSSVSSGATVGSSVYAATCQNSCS

B1: Cmpd 5268 (peptide)
peptide: HGEGTFTSDLSKQAEEEAVRLFIEWLKNGKPKK[Gly(octyl)]RYS-OH
modifications: N-terminus assumed
SMILES: CCCCCCCC[C@H](NC(=O)[C@H](CCCCN)NC(=O)[C@H](CCCCN)NC(=O)[C@@H]1CCCN1C(=O)[C@H](CCCCN)NC(=O)CNC(=O)[C@H](CC(N)=O)NC(=O)[C@H](CCCCN)NC(=O)[C@H](CC(C)C)NC(=O)[C@H](Cc1c[nH]c2ccccc12)NC(=O)[C@H](CCC(=O)O)NC(=O)[C@@H](NC(=O)[C@H](Cc1ccccc1)NC(=O)[C@H](CC(C)C)NC(=O)[C@H](CCCNC(=N)N)NC(=O)[C@@H](NC(=O)[C@H](C)NC(=O)[C@H](CCC(=O)O)NC(=O)[C@H](CCC(=O)O)NC(=O)[C@H](CCC(=O)O)NC(=O)[C@H](C)NC(=O)[C@H](CCC(N)=O)NC(=O)[C@H](CCCCN)NC(=O)[C@H](CO)NC(=O)[C@H](CC(C)C)NC(=O)[C@H](CC(=O)O)NC(=O)[C@H](CO)NC(=O)[C@@H](NC(=O)[C@H](Cc1ccccc1)NC(=O)[C@@H](NC(=O)CNC(=O)[C@H](CCC(=O)O)NC(=O)CNC(=O)[C@@H](N)Cc1c[nH]cn1)[C@@H](C)O)[C@@H](C)O)C(C)C)[C@@H](C)CC)C(=O)N[C@@H](CCCNC(=N)N)C(=O)N[C@@H](Cc1ccc(O)cc1)C(=O)N[C@@H](CO)C(=O)O
notes: tested as C-terminal acid (-OH)
B2: Cmpd 5269 (peptide)
peptide: HGEGTFTSDLSKQLEEEAVRLFIEFLKNGKPKK[Gly(octyl)]RYS-OH
modifications: N-terminus assumed
SMILES: CCCCCCCC[C@H](NC(=O)[C@H](CCCCN)NC(=O)[C@H](CCCCN)NC(=O)[C@@H]1CCCN1C(=O)[C@H](CCCCN)NC(=O)CNC(=O)[C@H](CC(N)=O)NC(=O)[C@H](CCCCN)NC(=O)[C@H](CC(C)C)NC(=O)[C@H](Cc1ccccc1)NC(=O)[C@H](CCC(=O)O)NC(=O)[C@@H](NC(=O)[C@H](Cc1ccccc1)NC(=O)[C@H](CC(C)C)NC(=O)[C@H](CCCNC(=N)N)NC(=O)[C@@H](NC(=O)[C@H](C)NC(=O)[C@H](CCC(=O)O)NC(=O)[C@H](CCC(=O)O)NC(=O)[C@H](CCC(=O)O)NC(=O)[C@H](CC(C)C)NC(=O)[C@H](CCC(N)=O)NC(=O)[C@H](CCCCN)NC(=O)[C@H](CO)NC(=O)[C@H](CC(C)C)NC(=O)[C@H](CC(=O)O)NC(=O)[C@H](CO)NC(=O)[C@@H](NC(=O)[C@H](Cc1ccccc1)NC(=O)[C@@H](NC(=O)CNC(=O)[C@H](CCC(=O)O)NC(=O)CNC(=O)[C@@H](N)Cc1c[nH]cn1)[C@@H](C)O)[C@@H](C)O)C(C)C)[C@@H](C)CC)C(=O)N[C@@H](CCCNC(=N)N)C(=O)N[C@@H](Cc1ccc(O)cc1)C(=O)N[C@@H](CO)C(=O)O
notes: as for B1

Columns and labels:
[1] = tested on: GLP/GIP/CT cyclase, RIN-m5F cells; assay: GLP/GIP/CT Cyclase (RIN) assay; assay type: cell-based, rat; conditions: cAMP, values without **
Procedure: GLP/GIP/CT Cyclase (RIN) Assay
Five μl of serially diluted peptides are transferred to the 384-well assay plate. Rat pancreas insulinoma cells (RIN-m5F) are detached from a tissue culture flask with Versene and washed once in buffer. Then RIN-m5F cells are resusupended in buffer at 2.5×10^6 cells/ml. Then 10 μl cells (2.5×10^4 cells) are added to all wells of the assay plate and cells are stimulated at room temperature in the dark for 30 minutes. The reaction is terminated with 10 μl of lysis buffer and incubated at room temperature for 4 hrs in the dark. cAMP content is measured using Perkin Elmer AlphaScreen™ cAMP assay kit and results are read on a Perkin Elmer Fusion fluorometer. The assay is completed in 384-well plates at 25 microliter volumes.

NH/Swiss mice = assay: Glucose lowering assay; assay type: in vivo, mouse; conditions: IP, 2 nmol/kg, change in blood glucose relative to vehicle
Procedure: Female NH/Swiss mice (˜8-20 weeks of age), (Harlan, Indianapolis, Ind., USA), housed 3 mice per cage, are allowed ad libitum access to food and water until the start of the experiment. At two hours prior to treatment, access to food is restricted.
At the time of treatment, the tip of the tail is pricked with a needle to obtain 1 μl blood as a “pre-treatment” control blood sample. Immediately thereafter, each mouse is injected intraperitoneally (IP) with a test sample (1 nmol/kg or 2 nmol/kg) or 200 μl vehicle (10% DMSO saline). Additional blood samples are collected at 30, 60, 120, 180, and 240 minutes after injection.
Blood glucose is measured with a glucose oxidase biosensor (OneTouch® Ultra® (LifeScan, Inc., a Johnson & Johnson Company, Milpitas, Calif.)). At each time point, the effect of the test sample is expressed as the percent change in blood glucose relative to mice injected with vehicle only. Test samples and vehicle controls are also compared to their respective “pre-treatment” controls.
Significant test sample effects are identified by ANOVA (p<0.05). Where a significant difference existed, test means are compared to the control mean with Dunnett's post test using GraphPad Prism version 4.00 for Windows, GraphPad Software, San Diego Calif. USA, www.graphpad.com).

Plasma stability = assay type: in vitro ADME; conditions: 20 μg/mL in plasma, 37° C., 0-5 hours
Procedure: To assess stability, the compound of interest is spiked into plasma at a concentration of 20 μg/mL. It is incubated at 37° C. for 0, 1, 2 3, 4, 5 hours in triplicate. At each time point, MeOH is added to a 96 well microtiter plate and then sample is added in a ratio of 1 part sample to 4 parts MeOH to quench the digestion reaction. Samples are mixed with multi-channel pipette or liquid handler. The plate is then centrifuged for 10 minutes and placed in an autosampler kept at 10° C. Samples are then injected into a mass spectrometer (API 3000, Applied Biosystems) equipped with an autosampler (Leap HTC Pal) and HPLC pumps (Shimadzu LC-10ADVP).

[2] = biological target: T1, GLP-1 receptor, endogenous in RINm5f …; assay: cell-based or functional assay
[3] = biological target: T1, GLP-1 receptor, endogenous in RINm5f …; assay: 125I-GLP-1 displacement, RINm5f membranes
[4] = biological target: T2, GLP-1 receptor, endogenous in RINm5f …; assay: cell-based or functional assay

Row | Molecule | cAMP, CYCLASE GLP/GIP/CT (RIN) EC50 [2] [pM] | IC50 [3] [pM] | also measured
1 | CCCCCCCC[C@H](NC(=O)[C@H](CCCCN)NC(=O)[C@H](CCCCN)NC(=O)[C@@H]1CCCN1C(=O)[C@H](CCCCN)NC(=O)CNC(=O)[C@H](CC(N)=O)NC(=O)[C@H](CCCCN)NC(=O)[C@H](CC(C)C)NC(=O)[C@H](Cc1c[nH]c2ccccc12)NC(=O)[C@H](CCC(=O)O)NC(=O)[C@@H](NC(=O)[C@H](Cc1ccccc1)NC(=O)[C@H](CC(C)C)NC(=O)[C@H](CCCNC(=N)N)NC(=O)[C@@H](NC(=O)[C@H](C)NC(=O)[C@H](CCC(=O)O)NC(=O)[C@H](CCC(=O)O)NC(=O)[C@H](CCC(=O)O)NC(=O)[C@H](C)NC(=O)[C@H](CCC(N)=O)NC(=O)[C@H](CCCCN)NC(=O)[C@H](CO)NC(=O)[C@H](CC(C)C)NC(=O)[C@H](CC(=O)O)NC(=O)[C@H](CO)NC(=O)[C@@H](NC(=O)[C@H](Cc1ccccc1)NC(=O)[C@@H](NC(=O)CNC(=O)[C@H](CCC(=O)O)NC(=O)CNC(=O)[C@@H](N)Cc1c[nH]cn1)[C@@H](C)O)[C@@H](C)O)C(C)C)[C@@H](C)CC)C(=O)N[C@@H](CCCNC(=N)N)C(=O)N[C@@H](Cc1ccc(O)cc1)C(=O)N[C@@H](CO)C(=O)O [Cmpd 5268] (H-HGEGTFTSDLSKQAEEEAVRLFIEWLKNGKPKK[Gly(octyl)]RYS-OH; N-terminus assumed) | – | – | EC50 [1]: 489 pM; GLU LOWERING AUC240 @2 nmol/kg (NH/Swiss mice): −8%
2 | HGEGTFTSDLSKQLEEKAAKEFIEWLIQGGPSKEIIS-OH [Cmpd 5101] | – | – | EC50 [1]: 863 pM; GLU LOWERING AUC240 @2 nmol/kg (NH/Swiss mice): −10%; plasma stability as compared to native GLP-1 (Plasma stability): increased plasma stability; plasma stability as compared to native GLP-1 (Plasma stability; second, narrower list of b152): increased plasma stability
3 | CCCCCCCC[C@H](NC(=O)[C@H](CCCCN)NC(=O)[C@H](CCCCN)NC(=O)[C@@H]1CCCN1C(=O)[C@H](CCCCN)NC(=O)CNC(=O)[C@H](CC(N)=O)NC(=O)[C@H](CCCCN)NC(=O)[C@H](CC(C)C)NC(=O)[C@H](Cc1ccccc1)NC(=O)[C@H](CCC(=O)O)NC(=O)[C@@H](NC(=O)[C@H](Cc1ccccc1)NC(=O)[C@H](CC(C)C)NC(=O)[C@H](CCCNC(=N)N)NC(=O)[C@@H](NC(=O)[C@H](C)NC(=O)[C@H](CCC(=O)O)NC(=O)[C@H](CCC(=O)O)NC(=O)[C@H](CCC(=O)O)NC(=O)[C@H](CC(C)C)NC(=O)[C@H](CCC(N)=O)NC(=O)[C@H](CCCCN)NC(=O)[C@H](CO)NC(=O)[C@H](CC(C)C)NC(=O)[C@H](CC(=O)O)NC(=O)[C@H](CO)NC(=O)[C@@H](NC(=O)[C@H](Cc1ccccc1)NC(=O)[C@@H](NC(=O)CNC(=O)[C@H](CCC(=O)O)NC(=O)CNC(=O)[C@@H](N)Cc1c[nH]cn1)[C@@H](C)O)[C@@H](C)O)C(C)C)[C@@H](C)CC)C(=O)N[C@@H](CCCNC(=N)N)C(=O)N[C@@H](Cc1ccc(O)cc1)C(=O)N[C@@H](CO)C(=O)O [Cmpd 5269] | – | – | EC50 [1]: 1310 pM; GLU LOWERING AUC240 @2 nmol/kg (NH/Swiss mice): −14%
4 | B1 | 489 | 110 | –
5 | B2 | 1310 | 88 | –
6 | HGEGTYTNDVSSYLEGQAARLFIEWLQGGPSSGAPPPS-NH2 (also: table prints an unexplained underscore after L26) [Cmpd 5183] | 210 | 310 | –
7 | HAEGTFTSDVSSYLEGQAAKEFIAWLVKGRGGG (not fully specified; modifications not checked) [Cmpd 4844, GLP-1-(7-37)-GG(S)-2,6-diamino-1-(thiazolidin-3-y1)hexan-1-one amide] | – | – | cAMP, CYCLASE GLP/GIP/CT (RIN) EC50 [4]: 130 pM
8 | HAEGTFTSDVSSYLEGQAAKEFIAWLVKGRGGG (not fully specified; modifications not checked) [Cmpd 4845, GLP-1-(7-37)-GG-(S)-2,6-diamino-1-(thiazolidin-2-cyano-3-y1)hexan-1-one amide] | – | – | cAMP, CYCLASE GLP/GIP/CT (RIN) EC50 [4]: 400 pM
9 | HGEGTFTSDLSKQLEEEAVRLFIEWLKNPGGKEIIS (tested as C-terminal acid (-OH)) [Cmpd 5296] | 145 | 4000 | –
10 | HGEGTFTSDVTQQLEEEAVRLFIEWLKQGGPSSGAPPPS-NH2 [Cmpd 5099] | 1290 | 5000 | –
11 | HGEGTFTSDLVKILEAEAVRKFIEFLKN-NH2 [Cmpd 5052] | 4500 | 560 | –
